The record followed here is doi:10.1101/2022.10.03.510161.

In assay [1] the target is P74-26 tail tube protein (TTP), gp93, recombinant wild type (bacteriophage P74-26). The experiment in a line: SEC-MALS.
Assay [2] has the same target. In words: light scattering of tube assembly.
For assay [3], the target named is P74-26 TTP L229A variant (bacteriophage P74-26). The experiment in a line: light scattering of tube assembly.
In assay [4] the target is P74-26 tail tube protein (TTP), gp93, in the tail tube of purified virions (bacteriophage P74-26). In words: cryo-EM structure.

As for “P74-26 tail tube protein (TTP), gp93, recombinant wild type (natural protein)”, in assay [1], the mass fraction of the hexamer peak was 6% and the stoichiometry N amounted to 6. In assay [2], the tube growth rate at 37 °C relative to 20 °C (x the 20°C rate) is 68 and the tube growth rate at 50 °C relative to 20 °C (x the 20°C rate) turned out to be 3520.

On to “P74-26 TTP L229A variant (natural protein)”, for which the tube formation rate relative to WT in assay [3] was 10 % of the WT.

As for “P74-26 tail tube protein (TTP), gp93, in the tail tube of purified virions (natural protein)”, the stoichiometry N in assay [4] amounted to 3.
